One substance from patent US6617117B1, “MAP kinases: polypeptides, polynucleotides and uses thereof” (Medical Research Council, priority 1996, dated 2003) can be followed below.

Format in all cases: biochemical
In one assay the target is T1, SAPK4 (Homo sapiens, UniProt O15264).
T1 sequence (O15264 1-365): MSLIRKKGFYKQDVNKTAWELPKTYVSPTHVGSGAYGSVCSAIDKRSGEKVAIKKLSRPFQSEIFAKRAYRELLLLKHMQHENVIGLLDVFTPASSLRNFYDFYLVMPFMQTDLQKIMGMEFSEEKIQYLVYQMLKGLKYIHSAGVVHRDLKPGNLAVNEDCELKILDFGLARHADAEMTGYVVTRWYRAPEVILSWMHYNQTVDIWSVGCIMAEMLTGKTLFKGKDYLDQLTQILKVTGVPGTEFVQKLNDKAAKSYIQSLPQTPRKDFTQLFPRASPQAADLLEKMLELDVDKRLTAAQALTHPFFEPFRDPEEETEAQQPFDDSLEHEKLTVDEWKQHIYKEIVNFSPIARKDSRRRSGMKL
Description: Substrate specificity: rate of phosphorylation by SAPK4 (Table 1). On the set-up: made in house; host or cells: E. coli BL21(DE3). The following applies: substrate 1 μm; SAPK 0.15 U/ml; means ± SEM of six determinations. On the procedure:
(§1) Experiments were carried out with the Xenopus homologue of SAPK2a, human SAPK2b and human SAPK4. The SAPKs were activated in vitro (FIG. 7) and phosphorylation of each protein was studied at a SAPK concentration of 0.15 U/ml. The results are presented as means±SEM of six determinations (two separate experiments). The data for rat SAPK3 are taken from Example 4 and Cuenda et al (1997).
SAPK4 is assayed routinely by the phosphorylation of MBP. […] After washing and drying the papers (Alessi et al, 1995 Meth. Enzymol. 255, 279-290) ^32P radioactivity incorporated into MBP is measured.

Another assay deals with T2, human SAPK2b (Homo sapiens, UniProt Q15759).
T2 construct: a number of SAPK2b clones, some of which were full-length; made in house; host or cells: E. coli BL21(DE3)
T2 sequence (Q15759 whole entry): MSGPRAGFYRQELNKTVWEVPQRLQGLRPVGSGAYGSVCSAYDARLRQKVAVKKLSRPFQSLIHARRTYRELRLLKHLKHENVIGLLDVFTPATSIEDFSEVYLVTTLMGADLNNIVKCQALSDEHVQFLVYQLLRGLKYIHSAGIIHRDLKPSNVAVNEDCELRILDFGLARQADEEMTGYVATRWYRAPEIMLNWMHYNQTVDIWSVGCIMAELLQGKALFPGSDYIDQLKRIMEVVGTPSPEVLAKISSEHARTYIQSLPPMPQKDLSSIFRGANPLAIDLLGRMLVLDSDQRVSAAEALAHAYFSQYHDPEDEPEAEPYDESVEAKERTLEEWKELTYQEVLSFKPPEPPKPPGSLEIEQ
Description: Substrate specificity: rate of phosphorylation by SAPK2b (Table 1). The following applies: substrate 1 μm; SAPK 0.15 U/ml; means ± SEM of six determinations. How it is done:
as §1

Another assay deals with T3, rat SAPK3 (Rattus norvegicus, UniProt Q63538).
T3 construct: made in house; host or cells: E. coli BL21 (DE3)
T3 sequence (Q63538 1-367): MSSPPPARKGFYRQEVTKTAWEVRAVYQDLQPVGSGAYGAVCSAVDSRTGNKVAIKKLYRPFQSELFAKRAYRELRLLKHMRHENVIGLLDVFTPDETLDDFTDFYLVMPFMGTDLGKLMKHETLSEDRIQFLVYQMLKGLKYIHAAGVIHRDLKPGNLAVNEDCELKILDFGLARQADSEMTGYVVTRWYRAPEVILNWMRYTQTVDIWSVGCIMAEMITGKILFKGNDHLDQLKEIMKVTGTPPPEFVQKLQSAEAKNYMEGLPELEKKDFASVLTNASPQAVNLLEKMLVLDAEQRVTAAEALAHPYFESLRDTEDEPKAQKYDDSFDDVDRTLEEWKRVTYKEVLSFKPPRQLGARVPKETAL
Briefly: Substrate specificity: rate of phosphorylation by SAPK3 (Tables 1 and 2). How it is done:
as §1
(§2) Protein kinase assays. SAPK3 was assayed routinely by the phosphorylation of MBP. […] After 20 min at 30° C.
(§3) Table 2. Comparison of substrate specificities of SAPK2 and SAPK3. SAPK2 and SAPK3 were activated in vitro (FIG. 15) and phosphorylation of each protein studied at a SAPK concentration of 0.1 U/ml.

The target in assay [1] is Xenopus homologue of SAPK2a (Xenopus laevis, UniProt P47812). Briefly: Substrate specificity: rate of phosphorylation by SAPK2a (Table 1). The following applies: substrate 1 μm; SAPK 0.15 U/ml; means ± SEM of six determinations. The arrangement: made in house; host or cells: E. coli. How it is done:
as §1

Assay [2] concerns the target T4, SAPK2 (Xenopus homologue) (Xenopus laevis, UniProt P47812).
T4 construct: made in house; host or cells: E. coli
Description: Substrate specificity: rate of phosphorylation by SAPK2 (Table 2). The settings on record: substrate 1 μM; SAPK 0.1 U/ml. How it is done: as §2, §3

T4 sequence (P47812 whole entry): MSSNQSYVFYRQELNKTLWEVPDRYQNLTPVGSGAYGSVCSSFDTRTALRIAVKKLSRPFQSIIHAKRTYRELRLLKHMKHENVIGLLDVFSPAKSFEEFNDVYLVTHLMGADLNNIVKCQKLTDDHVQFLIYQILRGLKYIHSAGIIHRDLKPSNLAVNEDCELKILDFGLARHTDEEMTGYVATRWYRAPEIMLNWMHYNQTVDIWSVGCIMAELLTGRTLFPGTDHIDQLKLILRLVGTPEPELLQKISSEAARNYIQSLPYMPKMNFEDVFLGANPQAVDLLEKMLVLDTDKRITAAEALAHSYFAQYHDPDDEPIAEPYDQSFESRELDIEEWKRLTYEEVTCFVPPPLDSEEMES
Sequence of Xenopus homologue of SAPK2a (P47812 whole entry): as above

For “Elk-1: transcription factor activation domain linked to GST, kinase substrate”, in the assay with SAPK4, the “Rates of phosphorylation relative to MBP, SAPK4” value was 175 ± 25%. Also, in the assay with human SAPK2b, the “Rates of phosphorylation relative to MBP, SAPK2b” value turned out to be 136 ± 12%. Besides, in the assay with rat SAPK3 (substrate 1 μM, SAPK 0.1 U/ml), the “Rate of phosphorylation relative to MBP, SAPK3” value was 181 ± 30. Also, the “Rates of phosphorylation relative to MBP, SAPK3” value with rat SAPK3 (substrate 1 μm, rat SAPK3 data taken from Example 4 and Cuenda et al (1997)) is on record as 181 ± 30%. Further, the “Rates of phosphorylation relative to MBP, SAPK2a” value in assay [1] came out at 90 ± 10%. In addition, the “Rate of phosphorylation relative to MBP, SAPK2” value in assay [2] stood at 122 ± 22.
